# Reference: the supplement of paper PMC7877785
# ± gives the uncertainty stated by the source.
# Assay: self-splicing fitness, log relative to wild type (ln ratio); higher = more splicing; Tetrahymena group I intron in knt gene, E. coli kanamycin selection, DiMSum; sequences stand for … in CUCUCU…GGAGGGAAAAGUUAUCAGGCAUGCACCUGGUAGCUAGUCUUUAAACCAAUAGAUUGCAUCGGUUUAAAAGGCAAGACCGUCAAAUUGCGGGAAAGGGGUCAACAGCCGUUCAGUACCAAGUCUCAGGGGAAACUUUGAGAUGGCCUUGCAAAGGGUAUGGUAAUAAGCUGACGGACAUGGUCCUAACCACGCAGCCAAGUCCUAAGUCAACAGAUCUUCUGUUGAUAUGGAUGCAGUUCACAGACUAAAUGUCGGUCGGGGAAGAUGUAUUCUUCUCAUAAGAUAUAGUCGGACCUCUCCUUAAUGGGAGCUAGCGGAUGAAGUGAUGCAACACUGGAGCCGCUGGGAACUAAUUUGUAUGCGAAAGUAUAUUGAUUAGUUUUGGAGUACUCGUGGUCG
# How it was run: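 Colonies from six replicate transformations of E. coli BL21(DE3) were pooled and amplicon-sequenced on an Illumina HiSeq 2500. The library placed an intron with all eight P1ex-region nucleotides randomised inside the knt kanamycin-resistance gene on pET-22b(+), and cells grew overnight at 37°C or 30°C on LB agar with or without 25 μg/mL kanamycin (plus 100 μg/mL carbenicillin, 50 μM IPTG, 0.2% rhamnose). Fitness is the DiMSum error-weighted combination of wild-type-normalised replicate fold changes, kanamycin versus none.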
Sequence,self-splicing fitness (ln) (30 °C),self-splicing fitness (ln) (37 °C)
UAGCAGCAAUAUUACGGACU,-1.07 ± 0.1,-0.713 ± 0.15
UAGCAGCAAUAUUACGGCGC,-2.08 ± 0.23,0.611 ± 0.23
UAGCAGCAAUAUUACGGUCC,-3.66 ± 0.26,-2.03 ± 0.24
UAGCAGCAAUAUUACGGUUA,-0.0652 ± 0.056,-0.181 ± 0.064
UAGCAGCAAUAUUACGUAAC,-3.52 ± 0.19,-2.42 ± 0.21
UAGCAGCAAUAUUACGUCGA,-1.12 ± 0.071,-0.528 ± 0.082
UAGCAGCAAUAUUACGUGGA,-2.16 ± 0.12,-1.46 ± 0.11
UAGCAGCAAUAUUACGUUAU,-3.74 ± 0.23,-2.92 ± 0.24
UAGGAGCAAUAUUACGAAAA,-3.01 ± 0.45,-1.65 ± 0.41
UAGGAGCAAUAUUACGAACA,-2.08 ± 0.29,
UAGGAGCAAUAUUACGAAGC,-4.41 ± 0.33,-1.44 ± 0.26
UAGGAGCAAUAUUACGACAU,-3.83 ± 0.039,-2.8 ± 0.047
UAGGAGCAAUAUUACGACGU,,-1.9 ± 0.38
UAGGAGCAAUAUUACGAUAC,-4.56 ± 0.32,-1.86 ± 0.28
UAGGAGCAAUAUUACGAUGG,-3.36 ± 0.28,-1.4 ± 0.24
UAGGAGCAAUAUUACGCAGG,-2 ± 0.21,
UAGGAGCAAUAUUACGCGUA,-1.12 ± 0.15,-0.31 ± 0.12
UAGGAGCAAUAUUACGGCGG,-2.34 ± 0.24,-0.013 ± 0.26
UAGGAGCAAUAUUACGGGCA,-2.72 ± 0.26,-2.63 ± 0.39
UAGGAGCAAUAUUACGGGUG,-2.74 ± 0.27,-1.14 ± 0.26
UAGGAGCAAUAUUACGGUAU,-2.93 ± 0.36,-2.66 ± 0.3
UAGGAGCAAUAUUACGGUCU,-1.36 ± 0.37,
UAGGAGCAAUAUUACGUGAG,-2.42 ± 0.14,-1.55 ± 0.14
UAGUAGCAAUAUUACGACCC,-0.998 ± 0.35,-1.28 ± 0.43
UAGUAGCAAUAUUACGCAAA,-3.4 ± 0.3,-2.28 ± 0.2

Sequence,self-splicing fitness (ln) (30 °C),self-splicing fitness (ln) (37 °C)
UAGUAGCAAUAUUACGCACA,-1.2 ± 0.1,-0.493 ± 0.12
UAGUAGCAAUAUUACGCACU,-0.737 ± 0.11,-0.331 ± 0.12
UAGUAGCAAUAUUACGCAGC,-2.96 ± 0.47,
UAGUAGCAAUAUUACGCCCA,0.0306 ± 0.38,
UAGUAGCAAUAUUACGCCUG,-0.198 ± 0.12,-0.437 ± 0.13
UAGUAGCAAUAUUACGCGAG,-1.57 ± 0.12,-0.941 ± 0.17
UAGUAGCAAUAUUACGCUCG,0.127 ± 0.15,0.103 ± 0.19
UAGUAGCAAUAUUACGGAGU,-4.27 ± 0.28,-2.62 ± 0.16
UAGUAGCAAUAUUACGGCUU,-0.242 ± 0.11,0.187 ± 0.13
UAGUAGCAAUAUUACGGGCA,-1.17 ± 0.16,-0.536 ± 0.15
UAGUAGCAAUAUUACGUAGU,-4.39 ± 0.42,-0.839 ± 0.21
UAGUAGCAAUAUUACGUAUA,-1.69 ± 0.25,-1.14 ± 0.27
UAGUAGCAAUAUUACGUCUC,-3.51 ± 0.45,-1.59 ± 0.2
UAGUAGCAAUAUUACGUGUG,-2.02 ± 0.11,-1.23 ± 0.13
UAUAAGCAAUAUUACGAAAC,,-0.0191 ± 0.39
UAUAAGCAAUAUUACGAAUA,-1.55 ± 0.24,-0.822 ± 0.19
UAUAAGCAAUAUUACGACGG,-0.907 ± 0.12,0.474 ± 0.18
UAUAAGCAAUAUUACGAGAG,-3.52 ± 0.38,-2.52 ± 0.27
UAUAAGCAAUAUUACGAGCA,-0.842 ± 0.23,-0.234 ± 0.18
UAUAAGCAAUAUUACGAUAA,-1.17 ± 0.12,-0.947 ± 0.12
UAUAAGCAAUAUUACGAUGA,-0.333 ± 0.1,0.344 ± 0.13
UAUAAGCAAUAUUACGCAGA,-0.745 ± 0.45,-1.25 ± 0.18
UAUAAGCAAUAUUACGCCAA,-1.14 ± 0.29,-0.0916 ± 0.42
UAUAAGCAAUAUUACGCCGG,-0.545 ± 0.16,-0.0733 ± 0.18
UAUAAGCAAUAUUACGCCUG,-0.378 ± 0.13,0.297 ± 0.16

Sequence,self-splicing fitness (ln) (30 °C),self-splicing fitness (ln) (37 °C)
UAUAAGCAAUAUUACGCGCG,-0.131 ± 0.11,-0.655 ± 0.14
UAUAAGCAAUAUUACGGAAA,-2.19 ± 0.37,-1.48 ± 0.33
UAUAAGCAAUAUUACGGAAU,-2.37 ± 0.22,-0.6 ± 0.16
UAUAAGCAAUAUUACGGCAA,-0.395 ± 0.17,-0.0869 ± 0.2
UAUAAGCAAUAUUACGGGUA,-0.177 ± 0.1,0.401 ± 0.12
UAUAAGCAAUAUUACGGUUG,-1.61 ± 0.11,-0.603 ± 0.13
UAUAAGCAAUAUUACGUACA,-0.793 ± 0.12,-0.427 ± 0.14
UAUAAGCAAUAUUACGUCAC,-2.89 ± 0.33,-1.38 ± 0.32
UAUAAGCAAUAUUACGUCCA,-1.23 ± 0.12,0.113 ± 0.18
UAUAAGCAAUAUUACGUCUC,,-2.22 ± 0.35
UAUAAGCAAUAUUACGUGAA,0.0802 ± 0.12,-0.933 ± 0.15
UAUAAGCAAUAUUACGUGCC,-3.05 ± 0.22,-1.44 ± 0.17
UAUAAGCAAUAUUACGUGCU,-2.56 ± 0.16,-1.32 ± 0.15
UAUAAGCAAUAUUACGUGGA,-2.08 ± 0.19,-1.71 ± 0.19
UAUCAGCAAUAUUACGAAAU,-2.9 ± 0.16,-0.792 ± 0.15
UAUCAGCAAUAUUACGAACG,0.353 ± 0.085,0.157 ± 0.094
UAUCAGCAAUAUUACGAAGA,-0.93 ± 0.12,-0.91 ± 0.13
UAUCAGCAAUAUUACGAGUC,,-1.81 ± 0.48
UAUCAGCAAUAUUACGAUUU,0.142 ± 0.055,0.207 ± 0.07
UAUCAGCAAUAUUACGCACU,-0.0365 ± 0.087,0.104 ± 0.094
UAUCAGCAAUAUUACGCUGA,,-2.31 ± 0.37
UAUCAGCAAUAUUACGCUGC,-2.59 ± 0.35,-0.822 ± 0.24
UAUCAGCAAUAUUACGGGAC,-3.15 ± 0.22,-2.26 ± 0.25
UAUCAGCAAUAUUACGGGCC,,-2.07 ± 0.3
UAUCAGCAAUAUUACGGUAC,-3.28 ± 0.26,-2.54 ± 0.3

Sequence,self-splicing fitness (ln) (30 °C),self-splicing fitness (ln) (37 °C)
UAUCAGCAAUAUUACGGUGA,-0.121 ± 0.054,-0.19 ± 0.065
UAUCAGCAAUAUUACGGUUG,-0.952 ± 0.068,-0.113 ± 0.1
UAUCAGCAAUAUUACGUAAG,-2.16 ± 0.16,-1.09 ± 0.17
UAUCAGCAAUAUUACGUAGU,-1.87 ± 0.086,-1.19 ± 0.08
UAUCAGCAAUAUUACGUCAA,-0.73 ± 0.092,-0.445 ± 0.11
UAUCAGCAAUAUUACGUUAU,-3.07 ± 0.11,-1.89 ± 0.1
UAUGAGCAAUAUUACGCAGU,-1.98 ± 0.24,-0.419 ± 0.21
UAUGAGCAAUAUUACGCGAG,-2.87 ± 0.17,-0.834 ± 0.08
UAUGAGCAAUAUUACGCGAU,,-2.93 ± 0.37
UAUGAGCAAUAUUACGCGUU,-4.08 ± 0.36,-1.79 ± 0.24
UAUGAGCAAUAUUACGCUCA,-2.45 ± 0.31,-2.73 ± 0.27
UAUGAGCAAUAUUACGCUGU,-3.79 ± 0.25,-3.21 ± 0.24
UAUGAGCAAUAUUACGGCGG,-3.22 ± 0.23,-1.72 ± 0.26
UAUGAGCAAUAUUACGGCUC,,-0.823 ± 0.41
UAUGAGCAAUAUUACGGUGA,-2.21 ± 0.16,-3.36 ± 0.27
UAUGAGCAAUAUUACGGUGC,-3.01 ± 0.41,-0.888 ± 0.3
UAUGAGCAAUAUUACGUACU,-4.19 ± 0.42,-1.09 ± 0.41
UAUGAGCAAUAUUACGUAGC,-3.71 ± 0.3,-2.5 ± 0.29
UAUGAGCAAUAUUACGUAUA,-2 ± 0.4,-1.02 ± 0.28
UAUGAGCAAUAUUACGUGAG,-2.91 ± 0.14,-2.74 ± 0.23
UAUGAGCAAUAUUACGUGCG,-1.06 ± 0.12,-1.41 ± 0.16
UAUGAGCAAUAUUACGUUAC,-3.37 ± 0.36,-2.48 ± 0.23
UAUGAGCAAUAUUACGUUUG,-3.93 ± 0.26,-1.8 ± 0.15
UAUUAGCAAUAUUACGACGC,-2.92 ± 0.48,-2.18 ± 0.38
